This passage reports binding signal (z-score (mean of top ten 7-mers)) results from publication PMC12990809.

Experiment in all cases: pulldown
Common to all, as to settings: 20 nM protein, 1.5 uM RNA pool; 20 mM HEPES pH 7.8, 70 mM KCl, 10 mM NaCl, 10% glycerol, 2 mM DTT, 0.1 ug/uL BSA; 30 min, 4 C

Data set [1] deals with T1, ENSGALG00000014089 (Gallus gallus) (UniProt A0A8V0XZS6).
T1 sequence: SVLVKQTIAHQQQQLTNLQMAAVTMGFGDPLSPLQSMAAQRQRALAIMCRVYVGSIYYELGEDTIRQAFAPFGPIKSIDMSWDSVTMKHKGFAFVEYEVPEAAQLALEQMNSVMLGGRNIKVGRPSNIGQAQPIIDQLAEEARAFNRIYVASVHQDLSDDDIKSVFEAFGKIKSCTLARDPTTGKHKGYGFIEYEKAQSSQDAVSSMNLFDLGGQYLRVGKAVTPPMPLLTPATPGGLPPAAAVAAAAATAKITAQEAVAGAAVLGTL

For data set [2], the target named is T2, mex3c (Danio rerio) (UniProt A0A8M1REM5).
T2 sequence: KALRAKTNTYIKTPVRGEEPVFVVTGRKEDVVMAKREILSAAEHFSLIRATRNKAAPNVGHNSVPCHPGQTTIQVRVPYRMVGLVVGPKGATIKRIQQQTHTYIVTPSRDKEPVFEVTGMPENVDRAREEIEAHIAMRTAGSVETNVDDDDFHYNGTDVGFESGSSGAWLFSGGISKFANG

Data set [3] deals with T3, Tb927.7.320 T9S (Trypanosoma brucei) (UniProt Q57U22).
T3 sequence: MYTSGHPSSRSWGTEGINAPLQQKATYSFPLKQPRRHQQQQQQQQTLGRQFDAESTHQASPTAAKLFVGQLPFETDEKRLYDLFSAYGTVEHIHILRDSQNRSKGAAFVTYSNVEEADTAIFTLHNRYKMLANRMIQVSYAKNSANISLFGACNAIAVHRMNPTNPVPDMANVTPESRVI

Data set [4] addresses T4, LmjF.24.1570 (Leishmania major) (UniProt Q4QAH4).
T4 sequence: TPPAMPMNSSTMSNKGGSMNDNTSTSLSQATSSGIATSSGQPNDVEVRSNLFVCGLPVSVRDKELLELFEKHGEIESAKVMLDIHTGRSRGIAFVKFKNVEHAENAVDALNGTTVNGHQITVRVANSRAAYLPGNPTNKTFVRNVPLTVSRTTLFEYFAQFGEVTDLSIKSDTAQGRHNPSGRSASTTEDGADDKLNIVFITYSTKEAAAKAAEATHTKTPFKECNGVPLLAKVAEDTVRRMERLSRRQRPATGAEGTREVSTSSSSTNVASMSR

Data set [5] deals with T5, PK10695.1 (Cannabis sativa) (UniProt A0A803NZQ3).
T5 sequence: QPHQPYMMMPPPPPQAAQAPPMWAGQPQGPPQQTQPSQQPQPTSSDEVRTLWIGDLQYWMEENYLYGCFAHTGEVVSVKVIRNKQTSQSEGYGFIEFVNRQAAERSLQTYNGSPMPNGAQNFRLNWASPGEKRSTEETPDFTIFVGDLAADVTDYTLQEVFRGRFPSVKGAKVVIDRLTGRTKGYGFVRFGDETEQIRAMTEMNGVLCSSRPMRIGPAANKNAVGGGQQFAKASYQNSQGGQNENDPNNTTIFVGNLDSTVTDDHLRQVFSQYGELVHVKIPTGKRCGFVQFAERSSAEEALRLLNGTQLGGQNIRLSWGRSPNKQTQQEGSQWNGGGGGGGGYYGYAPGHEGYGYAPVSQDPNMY

The target of data set [6] is T6, BATDEDRAFT_13807 (Batrachochytrium dendrobatidis) (UniProt F4NYD0).
T6 sequence: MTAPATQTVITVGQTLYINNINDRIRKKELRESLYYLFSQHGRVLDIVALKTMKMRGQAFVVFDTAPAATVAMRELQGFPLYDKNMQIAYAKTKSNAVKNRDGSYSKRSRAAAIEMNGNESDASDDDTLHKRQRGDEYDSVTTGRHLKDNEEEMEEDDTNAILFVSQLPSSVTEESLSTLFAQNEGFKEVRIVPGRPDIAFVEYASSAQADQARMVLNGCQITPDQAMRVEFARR

Data set [7] deals with T7, Tb927.3.3960 (Trypanosoma brucei) (UniProt Q57WD2).
T7 sequence: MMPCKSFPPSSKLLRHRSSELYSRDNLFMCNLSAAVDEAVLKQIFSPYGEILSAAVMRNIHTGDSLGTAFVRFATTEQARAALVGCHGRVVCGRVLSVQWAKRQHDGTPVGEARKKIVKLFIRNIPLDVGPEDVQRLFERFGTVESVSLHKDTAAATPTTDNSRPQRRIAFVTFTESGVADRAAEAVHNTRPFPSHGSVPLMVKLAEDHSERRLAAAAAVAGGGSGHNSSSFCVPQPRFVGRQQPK

For data set [8], the target named is RBPMS2 (Monodelphis domestica) (UniProt A0A5F8GJ20).
Data set [9] concerns T8, ENSMODG00000011903 (Monodelphis domestica).
T8 sequence: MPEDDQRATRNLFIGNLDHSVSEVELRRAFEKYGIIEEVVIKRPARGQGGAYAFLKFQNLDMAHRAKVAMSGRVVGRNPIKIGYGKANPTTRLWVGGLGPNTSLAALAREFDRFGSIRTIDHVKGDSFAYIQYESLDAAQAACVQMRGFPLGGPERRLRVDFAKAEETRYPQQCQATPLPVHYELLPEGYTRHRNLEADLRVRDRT

Chain of RBPMS2 (Monodelphis domestica) (A0A5F8GJ20 entry or part of it): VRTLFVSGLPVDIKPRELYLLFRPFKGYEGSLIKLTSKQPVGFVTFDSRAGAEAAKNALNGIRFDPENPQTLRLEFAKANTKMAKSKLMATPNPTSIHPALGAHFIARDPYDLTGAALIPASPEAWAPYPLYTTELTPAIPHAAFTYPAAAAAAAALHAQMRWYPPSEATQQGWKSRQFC

Turning to UUUUUUU [RNAcompete motif RNCMPT00760], the binding signal (z-score (mean of top ten 7-mers)) in data set [1] was determined as 11.4.
For AGAGUA [RNAcompete motif RNCMPT00727], the binding signal (z-score (mean of top ten 7-mers)) in data set [2] was 10.1.
With UUUGCUU [RNAcompete motif RNCMPT00751], the binding signal (z-score (mean of top ten 7-mers)) in data set [3] was determined as 12.5.
UAUACU [RNAcompete motif RNCMPT00761] came in with a binding signal (z-score (mean of top ten 7-mers)) in data set [4] of 22.5.
In turn, UUUAUUUU [RNAcompete motif RNCMPT00741] yielded a binding signal (z-score (mean of top ten 7-mers)) in data set [5] of 10.2.
The substance AUNGCAC [RNAcompete motif RNCMPT00739] yielded a binding signal (z-score (mean of top ten 7-mers)) in data set [6] of 7.82.
Consider CAUUGU [RNAcompete motif RNCMPT00735], for which the binding signal (z-score (mean of top ten 7-mers)) in data set [7] was 23.
In the case of ANCACG [RNAcompete motif RNCMPT00757], the binding signal (z-score (mean of top ten 7-mers)) in data set [8] was determined as 8.74.
In data set [9], UUUUUUG [RNAcompete motif RNCMPT00758] had a binding signal (z-score (mean of top ten 7-mers)) of 7.84.
